Results from paper PMC4967042.

What was measured:
Assay in all cases: MST
[1] = molecular target: RECQ1-C478A (human, UniProt P46063 1-649, C478A)
[2] = molecular target: RECQ1-C453A (human, UniProt P46063 1-649, C453A)
[3] = molecular target: RECQ1-C475A (human, UniProt P46063 1-649, C475A)
RECQ1-C475A, sequence (P46063 whole entry C475A): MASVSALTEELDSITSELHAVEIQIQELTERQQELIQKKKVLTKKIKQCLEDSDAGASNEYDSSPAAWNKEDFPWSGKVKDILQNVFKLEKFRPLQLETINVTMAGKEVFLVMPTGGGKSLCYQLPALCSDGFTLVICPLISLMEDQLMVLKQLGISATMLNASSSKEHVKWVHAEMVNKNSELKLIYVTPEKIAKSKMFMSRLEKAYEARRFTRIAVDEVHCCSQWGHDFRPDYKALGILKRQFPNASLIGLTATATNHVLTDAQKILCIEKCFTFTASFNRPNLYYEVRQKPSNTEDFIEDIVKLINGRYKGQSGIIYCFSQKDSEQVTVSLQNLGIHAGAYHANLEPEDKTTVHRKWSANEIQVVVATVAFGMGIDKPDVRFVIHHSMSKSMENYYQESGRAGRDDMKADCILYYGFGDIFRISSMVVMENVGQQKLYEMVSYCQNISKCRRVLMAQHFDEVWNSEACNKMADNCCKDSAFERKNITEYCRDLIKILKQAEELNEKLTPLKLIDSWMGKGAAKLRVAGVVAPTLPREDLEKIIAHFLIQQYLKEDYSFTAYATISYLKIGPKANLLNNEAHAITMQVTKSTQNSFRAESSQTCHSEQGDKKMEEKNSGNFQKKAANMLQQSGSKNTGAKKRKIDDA

RECQ1-C453A, sequence (P46063 whole entry C453A): as the sequence (P46063 whole entry C475A) above, with C453A, A475C counted along it
RECQ1-C478A, sequence (P46063 whole entry C478A): as the sequence (P46063 whole entry C475A) above, with A475C, C478A counted along it

B1: forked duplex T44/FLAP26 (dsDNA)
DNA 1: GCACTGGCCGTCGTTTTACGGTCGTGACTGGGAAAACCCTGGCG
DNA 2: TTTTTTTTTTTTTTTTTTTTTTCCAAGTAAAACGACGGCCAGTGC
Kd [1]: 602 nM
Kd [2]: 276 nM
Kd [3]: 473 nM
